B1: HDV Ribozyme (parent)
chain: GGCCGGCAUGGUCCCAGCCUCCUCGCUGGCGCCGGCUGGGCAACAUUCCGAGGGGACCGUCCCCUCGGUAAUGGCGAAUGGGACCCA

Variants of: B1
Assay: self-cleavage, relative activity (ratio to wild type); higher = more cleavage; co-transcriptional

| Variant | self-cleavage |
| --- | --- |
| G1C G73A | 0.201 |
| C3A A43G | 0.0821 |
| G28A U46A | 0.0326 |
| A45C G53A | 0.564 |
| G54C C62U | 0.746 |
| G17C C84A | 0.231 |
| G25A A78U | 0.0346 |
| G67A C85U | 1.03 |
| C33A G38A | 0.0386 |
| A42C C58A | 0.364 |
| G55C U69C | 1 |
| U65G A77C | 0.356 |
| G55C U79A | 0.527 |
| C33U C75A | 0.0923 |
| G29A C44A | 0.198 |
| C18A C41A | 0.125 |
| A8U C75U | 0.298 |
| C15G G81C | 0.375 |
| C19G G82U | 0.0627 |
| C41U C75U | 0.249 |
| G55C G74C | 0.297 |

| Variant | self-cleavage |
| --- | --- |
| G17A G76A | 0.787 |
| A51G C66A | 0.889 |
| A43G G52U | 0.742 |
| G29U C32A | 0.135 |
| U72G A83U | 0.166 |
| A16C G73U | 0.128 |
| A8U G68C | 0.752 |
| U46A U72A | 0.615 |
| C32G C86A | 0.18 |
| A8C A77G | 0.798 |
| G11A A83C | 0.0707 |
| C49U A51U | 0.867 |
| C44U A51G | 1.04 |
| U23C A83U | 0.767 |
| G10C C21U | 0.0256 |
| A8G C58A | 1.07 |
| G25C G76C | 0.0723 |
| C13G G29A | 0.0573 |
| G29A U46C | 0.138 |
| G5C U20G | 0 |
| C22G C36G | 0.123 |

| Variant | self-cleavage |
| --- | --- |
| C48A U72A | 0.456 |
| C36U C44U | 0.197 |
| G11U G31C | 0.146 |
| A8C G68U | 0.943 |
| C61A C64A | 0.96 |
| C57A G81A | 0.339 |
| A56U U60G | 1.07 |
| C21A C64G | 0.0604 |
| C14A C36G | 0.107 |
| C30U G34U | 0.135 |
| G1A G81A | 0.0462 |
| A8G C48U | 1.26 |
| C30G A56G | 0.0941 |
| G2U A87C | 0.0661 |
| U27A U69G | 1.02 |
| C19U U60G | 0.182 |
| C22G A45C | 0.0489 |
| U37A G68A | 0.381 |
| C63A A71G | 0.504 |
| A42C C64A | 0.212 |
| C32G A51U | 0.128 |

| Variant | self-cleavage |
| --- | --- |
| C21U G54U | 0.232 |
| C32U C58A | 1 |
| G40C C66U | 0.249 |
| C63U C86A | 0.96 |
| U37G C85A | 0.0875 |
| C24U C86U | 0.69 |
| G35C G54A | 0.151 |
| U23A G80A | 0.18 |
| G17C | 0.338 |
| G28C A45C | 0.0594 |
| A51G C85A | 0.673 |
| C41A A42G | 0.269 |
| U47G U79A | 0.95 |
| C24A U65A | 0.735 |
| G25A A42G | 0.158 |
| C21G C58A | 0.0396 |
| G54U C58U | 0.94 |
| U65G U69G | 0.942 |
| U20A C62G | 0.0639 |
| G29C C58A | 0.0755 |
| U47G G76C | 0.727 |

Source: the RNAGym collection of RNA variant scans (doi:10.7554/elife.80360)
